From patent US20240287208A1 (CONCEPT TO MEDICINE BIOTECH, published 2024)
One block for each binder: values may come before it.

Columns and labels:
human CD40-His protein [1] = molecular target: T1, human CD40-His protein (human, UniProt P25942 21-193); assay: BLI Octet RED96e, antibody captured on AHC, CD40-His as analyte
T1 construct: His-tagged recombinant protein; also called human CD40-his tag; recombinant CD40 protein
Description: (§1) The binding of the humanized 42p155 and 2p442 antibodies to recombinant human CD40 protein (human CD40-his tag) was tested by Biacore and Octet, respectively, using a capture method.
For humanized 2p442 monoclonal antibodies, 2p442z8, 2p442z9 and 2p442z10 were captured using AHC biosensor. A serial dilution of human CD40-his tag protein was incubated with captured antibody for 5 mins. The antigen was allowed to dissociate for 10 min. All the experiments were carried out on an Octet RED96e. Data analysis was carried out using Octet Analysis Studio 12.2 software.

human OX40 protein = molecular target: T2, human OX40 protein (human, UniProt P43489 29-216, limits assumed); assay: ELISA, plate-coated protein
T2 sequence (looked up): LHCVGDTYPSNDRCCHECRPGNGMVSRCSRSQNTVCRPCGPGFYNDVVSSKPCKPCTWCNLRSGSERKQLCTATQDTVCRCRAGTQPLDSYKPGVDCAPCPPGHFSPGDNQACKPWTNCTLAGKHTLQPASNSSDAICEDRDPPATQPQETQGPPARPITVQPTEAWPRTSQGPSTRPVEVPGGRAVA
Description: (§2) To evaluate the cross reactivity of chimeric anti-CD40 antibodies to other family members of TNF receptors, the ELISA binding towards human 4-1BB and human OX40 were performed.
(§3) Briefly, microtiter plates were coated with human 4-1BB protein or human OX40 protein at 1 μg/ml in PBS, 100 μl/well at 4° C. overnight, then blocked with 150 μl/well of 1% BSA. Ten-fold dilutions of 42p155, 2p834, 2p931, 42p655, 2p1294, 2p957, 42p495, 3p78, 2p415, 2p442, 2p551, 2p80 and 2p1130 antibodies starting from 100 nM were added to each well and incubated for 1 hour at RT. The plates were washed with PBS/Tween and then incubated with Anti-Human IgG (H&L) (GOAT) Antibody Peroxidase Conjugated for 30 mins at RT. After washing, the plates were developed with TMB substrate and analyzed by spectrophotometer at OD 450 nm.

human 4-1BB protein = molecular target: T3, human 4-1BB protein (human, UniProt Q07011 24-186); assay: ELISA, plate-coated protein
T3 construct: also called 4-IBB
Description: as §2, §3

[2] = molecular target: T4, human CD40 on the cell surface (human, UniProt P25942 21-277); assay: cell-based or functional assay
[3] = molecular target: T5, cynomolgus CD40-His protein (cynomolgus, UniProt G7PG38 21-193); assay: ELISA, plate-coated cynomolgus CD40-His
T5 construct: His-tagged recombinant protein; also called cyno CD40 antigen
Description: (§4) To evaluate the binding activity of clones 42p155, 2p834, 2p931, 42p655, 2p1294, 2p957, 42p495, 3p78, 2p415, 2p442, 2p551, 2p80 and 2p1130, the chimeric monospecific antibody (mAb) from these clones were subjected to ELISA test, along with selicrelumab, the clinical benchmark anti-CD40 agonist antibodies.
as §3, with “The binding affinity of these clones to cynomolgus CD40 was also tested. Microtiter plates” for “Briefly, microtiter plates”, “with cynomolgus CD40-His” for “with human 4-1BB protein or human OX40”, “at 1.0” for “at 1”, “100 µl/well” for “100 μl/well”, “150 µl/well” for “150 μl/well”, “nm. As shown in FIG. 1B and Table 2, all these clones bound to cynomolgus CD40 at high activity, showing good cross-reactivity between human and cynomolgus CD40 proteins.” for “nm.”

[4] = molecular target: T4, human CD40 on the cell surface; assay: FACS, Jurkat cells overexpressing human CD40, PE anti-human IgG, MFI
Description: (§5) To evaluate the binding affinity of humanized 2p442 monoclonal antibodies to cell surface CD40, 2p442z8, 2p442z9, 2p442z10 and parental 2p442 were tested in Jurkat cell lines that overexpressed CD40 by FACS. A total number of 1×10⁵ Jurkat-CD40 cells in each well were incubated with 3-fold serially diluted antibodies starting from 100 nM for 30 minutes at 4° C. in FACS buffer. After wash by FACS buffer, PE conjugated-anti-human IgG antibody was added to each well and incubated at 4° C. for 30 minutes. After wash, MFI of PE was evaluated by MACSQuant Analyzer 16.

human CD40-His protein [5] = molecular target: T1, human CD40-His protein; assay: ELISA, plate-coated human CD40-His
Description: as §4
as §3, with “human CD40-His” for “human 4-1BB protein or human OX40”, “at 1.0” for “at 1”, “150 µl/well” for “150 μl/well”

human CD40-His protein [6] = molecular target: T1, human CD40-His protein; assay: SPR Biacore T200, antibody captured on Protein A, CD40-His as analyte
Description: as §1
For humanized 42p155 monoclonal antibodies, 42p155z2 and 42p155z3 were captured using Protein A chip. A serial dilution of human CD40-his tag protein was injected over captured antibody for 3 mins at a flow rate of 10 μl/min. The antigen was allowed to dissociate for 6 min. All the experiments were carried out on a Biacore T200. Data analysis was carried out using Biacore T200 evaluation software.

[7] = molecular target: T4, human CD40 on the cell surface; assay: FACS, Jurkat cells overexpressing human CD40, PE anti-human IgG, MFI; remark: listed apart in the source
Description: as §5, with “5T4-CD40 bispecific” for “humanized 2p442 monoclonal”, “bispecific antibodies with formats of b 1 (42p155z2), b12 (42p155z2), b13 (42p155z2), b16 (42p155z2), b17 (42p155z2)” for “2p442z8, 2p442z9, 2p442z10”, “b18 (2p1130)” for “parental 2p442”, “5-fold” for “3-fold”

T1 sequence (P25942 21-193 limits assumed): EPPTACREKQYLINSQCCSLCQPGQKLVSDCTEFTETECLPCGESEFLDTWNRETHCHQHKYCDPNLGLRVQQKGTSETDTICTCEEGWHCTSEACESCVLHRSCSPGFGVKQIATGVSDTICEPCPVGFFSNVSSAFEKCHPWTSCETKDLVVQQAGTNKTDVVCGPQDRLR
T4 sequence (P25942 21-277): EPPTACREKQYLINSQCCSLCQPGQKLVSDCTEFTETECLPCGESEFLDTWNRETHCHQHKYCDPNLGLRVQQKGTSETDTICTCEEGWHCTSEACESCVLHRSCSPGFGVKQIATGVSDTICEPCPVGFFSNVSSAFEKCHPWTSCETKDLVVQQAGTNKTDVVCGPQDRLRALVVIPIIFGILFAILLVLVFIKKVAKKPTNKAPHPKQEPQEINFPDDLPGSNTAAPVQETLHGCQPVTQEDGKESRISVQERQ

B1: 2p442 chimeric monospecific antibody (antibody, V domains shown)
VH: QVQLVESGGGLVQPGGSLRLSCVASGFTLDYFAIGWFRQAPGKEREGVSCISGGGSTRYADSVKGRFTISRDNAKNTVYLQMNSLTPEDTAVYYCAAARLLSRNCVPRDSGSWGQGTQVTVSS
notes: Chimeric monospecific antibody; also called parental 2p442
Kd (human CD40-His protein [1]): 50.4 nM
koff (human CD40-His protein [1]): 0.0269 s⁻¹
kon (human CD40-His protein [1]): 534000 M⁻¹ s⁻¹
binding result (human OX40 protein): no binding (tested: 100 nM (highest concentration))
binding result (human 4-1BB protein): no binding (tested: 100 nM (highest concentration))
CD40 NF-κB luciferase reporter (Jurkat), RLU [2]: > 10 nM
EC50 [3]: 0.3 nM
EC50 (read off the curve) [4]: ~0.2 nM
EC50 (human CD40-His protein [5]): 1.95 nM

B2: 2p442z8 humanized monoclonal antibody (antibody, V domains shown)
VH: QVQLVESGGGLVKPGGSLRLSCAASGFTFDYFAIGWFRQAPGKGREGVSCISGGGSTRYADSVKGRFTISRDNAKNSVYLQMNSLRPEDTAVYYCARARLLSRNCVPRDSGSWGQGTLVTVSS
notes: Humanized monoclonal antibody captured on AHC biosensor; also called VHHz8
Kd (human CD40-His protein [1]): 56.7 nM
koff (human CD40-His protein [1]): 0.0119 s⁻¹
kon (human CD40-His protein [1]): 210000 M⁻¹ s⁻¹
EC50 (read off the curve) [4]: ~0.2 nM

B4: 2p442z10 humanized monoclonal antibody (antibody, V domains shown)
VH: QVQLVESGGGLVKPGGSLRLSCAASGFTFDYFAIGWFRQAPGKELEGVSCISGGGSTRYADSVKGRFTISRDNAKNSVYLQMNSLRPEDTAVYYCAAARLLSRNCVPRDSGSWGQGTLVTVSS
notes: Humanized monoclonal antibody captured on AHC biosensor; also called VHHz10
Kd (human CD40-His protein [1]): 69.6 nM
koff (human CD40-His protein [1]): 0.0337 s⁻¹
kon (human CD40-His protein [1]): 485000 M⁻¹ s⁻¹
EC50 (read off the curve) [4]: ~0.2 nM

B6: 42p155z3 humanized monoclonal antibody (antibody, V domains shown)
VH: EVQLVESGGGLVQPGGSLRLSCAASGFAFRSYTMSWVRQAPGKGLEWVSTITHNGAITTYAESAQGRFTISRDNSKNTLYLQMNSLRPEDTAVYYCAQGGGSNYYRESWGQGTQVTVSS
notes: Humanized monoclonal antibody captured on Protein A; also called VHHz3
Kd (human CD40-His protein [6]): 193 nM
koff (human CD40-His protein [6]): 0.0555 s⁻¹
kon (human CD40-His protein [6]): 287000 M⁻¹ s⁻¹

B8: b17 (42p155z2) anti-5T4/CD40 bispecific antibody (bispecific antibody, human IgG1, kappa, N297A)
heavy 1: EVQLQQSGPELVKPGASVKISCKASGYAFSSSWMNWVKQRPGKGLEWIGRIYREDGHTNYNGKFKGKATLTADKSSTTAYMQLTSLTSEDSAVYFCANGGAMDYWGQGTSVTVSSASTKGPSVFPLAPSSKSTSGGTAALGCLVKDYFPEPVTVSWNSGALTSGVHTFPAVLQSSGLYSLSSVVTVPSSSLGTQTYICNVNHKPSNTKVDKKVEPKSCDKTHTCPPCPAPELLGGPSVFLFPPKPKDTLMISRTPEVTCVVVDVSHEDPEVKFNWYVDGVEVHNAKTKPREEQYASTYRVVSVLTVLHQDWLNGKEYKCKVSNKALPAPIEKTISKAKGQPREPQVCTLPPSREEMTKNQVSLSCAVKGFYPSDIAVEWESNGQPENNYKTTPPVLDSDGSFFLVSKLTVDKSRWQQGNVFSCSVMHEALHNHYTQKSLSLSPGKGGGGSGGGGSGGGGSGGGGSEVQLVESGGGLVQPGGSLRLSCAASGFAFRSYTMSWVRQAPGKGLEWVSTITHNGAITTYAESAQGRFTISRDNSKNTLYLQMNSLRAEDTAVYYCAQGGGSNYYRESWGQGTQVTVSS
light: DIQMTQSTSSLSASLGDRVTISCRASQDISNYLNWYQQKPDGTVKLLIYYTSRLHSGVPSRFSGSGSGTDYSLTISNLEQEDIATYFCQQDNTLPWTFGGGTKLEIKRTVAAPSVFIFPPSDEQLKSGTASVVCLLNNFYPREAKVQWKVDNALQSGNSQESVTEQDSKDSTYSLSSTLTLSKADYEKHKVYACEVTHQGLSSPVTKSFNRGEC
heavy 2: not shown
notes: also called 1+2 b17 format
binding result [7]: binds

The remaining lines, values ahead:

Kd (human CD40-His protein [1]): 34.8 nM
koff (human CD40-His protein [1]): 0.0125 s⁻¹
kon (human CD40-His protein [1]): 357000 M⁻¹ s⁻¹
EC50 (read off the curve) [4]: ~0.2 nM
B3: 2p442z9 humanized monoclonal antibody (antibody, V domains shown)
VH: QVQLVESGGGLVKPGGSLRLSCAASGFTFDYFAIGWFRQAPGKELEGVSCISGGGSTRYADSVKGRFTISRDNAKNSVYLQMNSLRPEDTAVYYCARARLLSRNCVPRDSGSWGQGTLVTVSS
notes: Humanized monoclonal antibody captured on AHC biosensor; also called VHHz9

Kd (human CD40-His protein [6]): 186 nM
koff (human CD40-His protein [6]): 0.0368 s⁻¹
kon (human CD40-His protein [6]): 198000 M⁻¹ s⁻¹
B5: 42p155z2 humanized monoclonal antibody (antibody, V domains shown)
VH: EVQLVESGGGLVQPGGSLRLSCAASGFAFRSYTMSWVRQAPGKGLEWVSTITHNGAITTYAESAQGRFTISRDNSKNTLYLQMNSLRAEDTAVYYCAQGGGSNYYRESWGQGTQVTVSS
notes: Humanized monoclonal antibody captured on Protein A; also called VHHz2

binding result [7]: binds
B7: b12 (42p155z2) anti-5T4/CD40 bispecific antibody (bispecific antibody, human IgG1, kappa, N297A)
heavy 1: EVQLQQSGPELVKPGASVKISCKASGYAFSSSWMNWVKQRPGKGLEWIGRIYREDGHTNYNGKFKGKATLTADKSSTTAYMQLTSLTSEDSAVYFCANGGAMDYWGQGTSVTVSSASTKGPSVFPLAPSSKSTSGGTAALGCLVKDYFPEPVTVSWNSGALTSGVHTFPAVLQSSGLYSLSSVVTVPSSSLGTQTYICNVNHKPSNTKVDKKVEPKSCDKTHTCPPCPAPELLGGPSVFLFPPKPKDTLMISRTPEVTCVVVDVSHEDPEVKFNWYVDGVEVHNAKTKPREEQYASTYRVVSVLTVLHQDWLNGKEYKCKVSNKALPAPIEKTISKAKGQPREPQVCTLPPSREEMTKNQVSLSCAVKGFYPSDIAVEWESNGQPENNYKTTPPVLDSDGSFFLVSKLTVDKSRWQQGNVFSCSVMHEALHNHYTQKSLSLSPGK
light: DIQMTQSTSSLSASLGDRVTISCRASQDISNYLNWYQQKPDGTVKLLIYYTSRLHSGVPSRFSGSGSGTDYSLTISNLEQEDIATYFCQQDNTLPWTFGGGTKLEIKRTVAAPSVFIFPPSDEQLKSGTASVVCLLNNFYPREAKVQWKVDNALQSGNSQESVTEQDSKDSTYSLSSTLTLSKADYEKHKVYACEVTHQGLSSPVTKSFNRGEC
heavy 2: not shown
notes: also called 1+1 b12 format
